Results: PMC8689640 (ACS Synthetic Biology, 2021)

Key:
[1] = target: ΔVP1, Murine polyomavirus VP1 with the putative nuclear localization signal deleted (Murine polyomavirus) (UniProt P03090); test: SEC-MALS
[2] = target: the molecule itself; test: SEC-MALS

Question: With “ΔVP1, Murine polyomavirus VP1 with the putative nuclear localization signal deleted (from UniProt P03090 1-383) (natural protein)” as the molecule, how does the stoichiometry N [1] read?
Answer: 72 pentamers

B1: wild-type Murine polyomavirus VP1 (natural protein, UniProt P03090 1-383, looked up)
chain: MAPKRKSGVSKCETKCTKACPRPAPVPKLLIKGGMEVLDLVTGPDSVTEIEAFLNPRMGQPPTPESLTEGGQYYGWSRGINLATSDTWIPRNNTLPTWSMAKSSFPCLNEDLTCDTLQMWEAVSVKTEVVGSGSLLDVHGFNKTHRFSKHKGNSTPVEGSQYHVFAGGGEPLDLQGLVTDARTKYKEEGVVTIKTITKKDMVNKDQVLNPISKAKLDKDGMYPVEIWHPDPAKNENTRYFGNYTGGTTAPPVLQFTNTLTTVLLDENGVGPLCKGEGLYLSCVDIMGWRVTRNYVSSLEKGFPRYFKITLRKRWVKNPYPMASLISSLFNNMLPQVQGQPMEGENTQVEEVRVYDGTEPVPGDPDMTRYVDRFGKTKTVFPGN
Question: Which “stoichiometry N” value [2] does the source give for B1 here?
Answer: ~72 pentamers
